The results in this text go back to US20190338269.

One data set has as its target plasma factor X (UniProt P00742).

plasma factor X, sequence (P00742 whole entry, looked up): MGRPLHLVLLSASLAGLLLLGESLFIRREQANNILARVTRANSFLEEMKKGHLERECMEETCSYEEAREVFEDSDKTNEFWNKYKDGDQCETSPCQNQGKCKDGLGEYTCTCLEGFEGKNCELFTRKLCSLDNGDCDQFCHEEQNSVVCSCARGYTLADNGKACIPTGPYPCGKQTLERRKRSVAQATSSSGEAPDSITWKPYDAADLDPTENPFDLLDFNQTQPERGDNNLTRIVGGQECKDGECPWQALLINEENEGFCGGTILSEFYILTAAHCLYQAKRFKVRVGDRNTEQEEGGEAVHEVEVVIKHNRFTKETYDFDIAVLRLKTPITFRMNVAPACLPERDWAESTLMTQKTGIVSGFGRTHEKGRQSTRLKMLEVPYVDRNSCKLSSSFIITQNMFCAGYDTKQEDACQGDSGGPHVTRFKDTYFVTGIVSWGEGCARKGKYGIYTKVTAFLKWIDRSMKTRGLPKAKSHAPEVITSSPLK
plasma factor X, P00742, sequence (P00742 whole entry, looked up): as above

thrombin: in the data set with plasma factor X, the “appearance of FXa activity after incubation with thrombin (100 nM FX / 10 nM IIa, up to 8 h)” value is reported as “did not result in the appearance of FXa activity”.

B1: factor VIIa/tissue factor (TF) complex (protein)
chain 1: ANAFLEELRPGSLERECKEEQCSFEEAREIFKDAERTKLFWISYSDGDQCASSPCQNGGSCKDQLQSYICFCLPAFEGRNCETHKDDQLICVNENGGCEQYCSDHTGTKRSCRCHEGYSLLADGVSCTPTVEYPCGKIPILEKRNASKPQGRIVGGKVCPKGECPWQVLLLVNGAQLCGGTLINTIWVVSAAHCFDKIKNWRNLIAVLGEHDLSEHDGDEQSRRVAQVIIPSTYVPGTTNHDIALLRLHQPVVLTDHVVPLCLPERTFSERTLAFVRFSLVSGWGQLLDRGATALELMVLNVPRLMTQDCLQQSRKVGDSPNITEYMFCAGYSDGSKDSCKGDSGGPHATHYRGTWYLTGIVSWGQGCATVGHFGVYTRVSQYIEWLQKLMRSEPRPGVLLRAPFP
chain 2: SGTTNTVAAYNLTWKSTNFKTILEWEPKPVNQVYTVQISTKSGDWKSKCFYTTDTECDLTDEIVKDVKQTYLARVFSYPAGNVESTGSAGEPLYENSPEFTPYLETNLGQPTIQSFEQVGTKVNVTVEDERTLVRRNNTFLSLRDVFGKDLIYTLYYWKSSSSGKKTAKTNTNEFLIDVDKGENYCFSVQAVIPSRTVNRKSTDSPVECMGQEKGEFREIFYIIGAVVFVVIILVIILAISLHKCRKAGVGQSWKENSPLNVS
Regarding B1, the “FXa generated after incubation with FVIIa/TF (rate of hydrolysis of PNAPEP substrate)” value with plasma factor X, P00742 is “the already activated plasma FX and the plasma FX treated with the FVIIa/FT both gave a positive signal of the same order of magnitude”.
